For one substance, stoichiometry N results are on record in PMC5716667.

A word on the stoichiometry N: it is a count of units in the complex or per binding partner.

This test has as its target COPI coatomer (heptameric complex) (Chlamydomonas reinhardtii (endogenous in C. reinhardtii cells)). The experiment in a line: cryo-EM structure; in situ cryo-electron tomography of cryo-FIB milled vitrified C. reinhardtii cells, reference-free subtomogram averaging of the COPI triad with three-fold symmetry, 20 Å; PDB 5A1U fitted as a rigid body; separate averages of buds, vesicles and Golgi regions.

The substance COPI coatomer (heptameric complex) showed a stoichiometry N of 3.
